Values joined by “and” are separate entries in the source; they are usually repeats but may differ in a detail not shown here. Equal entries are not always repeated.
Legend:
[1] = biological target: Full-length Dreb2a fused to His-tag and GB1-tag (GB1-Dreb2a f.l.) (A. thaliana) (UniProt O82132); test: cross-linking
[2] = biological target: T1, Dreb2a 168-335 (binding domain and activation domain of Dreb2a) (A. thaliana, UniProt O82132 168-335); test: SPR
T1 sequence (looked up): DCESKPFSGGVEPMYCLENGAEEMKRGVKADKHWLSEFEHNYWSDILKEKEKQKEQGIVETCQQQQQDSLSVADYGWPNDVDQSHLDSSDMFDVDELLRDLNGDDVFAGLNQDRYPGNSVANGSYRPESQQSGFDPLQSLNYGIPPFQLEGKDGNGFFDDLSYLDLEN

[3] = biological target: T2, Full-length Dreb2a fused to His-tag and GB1-tag (GB1-Dreb2a f.l.) (A. thaliana, UniProt O82132 1-335); test: SPR
[4] = biological target: T2, Full-length Dreb2a fused to His-tag and …; test: cross-linking
Dreb2a f.l. (GB1 fusion) = Dreb2a f.l. (GB1 fusion) (Arabidopsis thaliana, UniProt O82132 1-335); test: EMSA
[5] = biological target: Dreb2a f.l. (GB1 fusion);Med25 551-680 (ACID domain) (Arabidopsis thaliana;Arabidopsis …, UniProt O82132;Q7XYY2 1-335;551-680, |); test: EMSA supershift

## Med25 551-680-GST (GST-tagged ACID domain of Arabidopsis thaliana Med25) (from UniProt Q7XYY2 551-680) (domain or fragment)
[1]
  stoichiometry N: 1 and 2

B1: Med25 551-680 (ACID domain of the Med25 mediator subunit from Arabidopsis thaliana), GST-tag removed (domain or fragment, A. thaliana, UniProt Q7XYY2 551-680, looked up)
chain: TSQSKYVKVWEGNLSGQRQGQPVLITRLEGYRSASASDSLAANWPPTMQIVRLISQDHMNNKQYVGKADFLVFRAMSQHGFLGQLQDKKLCAVIQLPSQTLLLSVSDKACRLIGMLFPGDMVVFKPQIPN
[2]
  Kd: ~1000 nM
[3]
  Kd: ~100 nM
[4]
  stoichiometry N: 2

B2: 29-nt rd29A DRE Wt-probe (dsDNA)
DNA 1: AAAGATATACTACCGACATGAGTTCCAAA
DNA 2: TTTGGAACTCATGTCGGTAGTATATCTTT
Dreb2a f.l. (GB1 fusion)
  binding result: binds
[5]
  binding result: binds

B3: 29-nt rd29A mutated DRE mut-probe (dsDNA)
DNA 1: AAAGATATACTACTTTTATGAGTTCCAAA
DNA 2: TTTGGAACTCATAAAAGTAGTATATCTTT
Dreb2a f.l. (GB1 fusion)
  binding result: no binding

From paper PMC3401450 (Nucleic Acids Research, 2012)
